From the RNAGym collection of RNA variant scans (doi:10.1073/pnas.2313332121) come the findings set out here.

Sequences and labels used below:
B1: TPR t1 (parent)
chain: GACCAAUCUGCCCUCAGAGCUCGAGAACAUCUUCGGAUGCAGAGGAGGCAGGCUUCGGUGGCGCGAUAGCGCCAACGUCCUCAACCUCCAAUGCAUCCCACCACAUGAUGAUGCCUGAAGAGCCUUGGUUUUUUG

In the series the parent is B1. Description: polymerase ribozyme fitness, log enrichment relative to wild type (log ratio); higher = more active; in vitro selection for triplet polymerase activity. In short, it runs like this:
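Fitness compares each genotype's enrichment to that of the wild type on a logarithmic scale, averaging replicates with inverse-variance weights. The logarithm is base 2. Enrichment came from Illumina sequencing of input and output libraries after one triplicate round of in vitro selection, which included frozen incubation at −7 °C, of PCR-built, transcribed mutant libraries of each subunit of a heterodimeric triplet polymerase ribozyme. Only genotypes with ≥10 input reads and ≥1 read per output were kept.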
With GACCAAUCUGCCCUCAGAGCUCGAGAACAUCUUCGGAUGCAGUGGAGGCAGGCUUCGGUGGCGCGAUAGCGCCAACUUCCUCAACCUGCAAUGCAUCCCACCACAUGAUGAUGCCUGAAGAGCCUUGGUUUUUUG [A43U G77U C88G], the “polymerase ribozyme fitness (log ratio)” value was -2.17.
Take GACCAAUCUGCCCUCAGAGCUCGAGAACAUCUUCGGAUGCAGUGCAGGUAGGCUUCGGUGGCGCGAUAGCGCCAACGUCCUCAACCUCCAAUGCAUCCCACCACAUGAUGAUGCCUGAAAAGCCUUGGUUUUUUG [A43U G45C C49U G120A]: the “polymerase ribozyme fitness (log ratio)” value is -3.19.
Turning to GACCAAUCUGCCCUCAGAGCUCGAGAACAUCUUCGGAUGCAGUGGAGGCAGGCUUCGGUGGCGCGAUAGCGCCAACGUCCUCAACCUCCAAUGCAUCCCACCACAUGAUGAUGCCUGAAGAGGCUUCGUUUUUUG [A43U C123G G127C], the “polymerase ribozyme fitness (log ratio)” value is -1.59.
The same measure for GACCAAUCUGCCCUCAGAGCUCGAGAACAUCUUCGGAUGCAGUGGAGGCAGGCUUCGGUGGCGCGAUAGCGCCAACGUCCUCAACCUCCAAUGCAUCCCACCACAUGAUGAUGCUUGAAGAGCCUUGGUUUUUUG [A43U C115U]: -1.87; for GACCAAUCUGCCCUCAGAGCUCGAGAACAUCUUCGGAUGCAGUAGAGGCAGGCUUCGGUGGCGCGAUAGCGCCAAGGUCCUCAACCUCCAAUGCAUCCCACCACAUGAUGCUGCCUGAAGAGCCUUGGUUUUUUG [A43U G44A C76G A111C]: -2.36; for GACCAAUCUGCCCUCAGAGCUCGAGAACAUCUUCGGAUGCAGUGGAGGCAGGCUUCGGUGGCACGAUAGCGCCAACGUCCUCAACCUCCAAUGCGUCCCACCACAUGAUGAUGCCUGAAGAUCCUUGGUUUUUUG [A43U G63A A95G G122U]: -4.37.
The same measure for GACCAAUCUGCCCUCAGAGCUCGAGAACAUCUUCGGAUGCAGUGGAGACAGGCUUCGGUGGCGCGAUAGCUCCAACGUCCUCAACCUCCAAUGCAUCCCACCACAUGAUGAAGCCUGAAGAGCCUUGGUUUUUUG [A43U G48A G71U U112A]: -1.51; for GACCAAUCUGCCCUCAGAGCUCGAGAACAUCUUCGGAUGCAGUGGAGGCAGGCUACGGUGGCGCGAUAGCGACAACGUCCUCAACCUCCAAUGCAUCCCACCACAUGAUGAUGCCUGAAGAGCCUUAGUUUUUUG [A43U U55A C72A G127A]: -2.75.
With GACCAAUCUGCCCUCAGAGCUCGAGAACAUCUUCGGAUGCAGUGGAGGCAGGCUACGGUGGCGCGAUAGCGCCAACGUCCUCAACCUCCAAUGCAUCCCACCACAUGAUGAUGCCUGAAGAGCCUUAGUUUUUUG [A43U U55A G127A], the “polymerase ribozyme fitness (log ratio)” value is -3.12.
For the variant GACCAAUCUGCCCUCAGAGCUCGAGAACAUCUUCGGAUGCAGUGGAGGCAGGCUUCGGUGCCGCGAUAGCGCCAACGUCCUCAACCUCCAAUGCAUCCCACCACAUGAUGAUGCCUGAAGAGCCUUGGUUUUUUG [A43U G61C], the “polymerase ribozyme fitness (log ratio)” value is -4.42.
The same measure for GACCAAUCUGCCCUCAGAGCUCGAGAACAUCUUCGGAUGCAGUGGAGGCAGGCUUCGGUGUCGCGAUAGCGCCAACGUCCUCAACCUCCAAUGCAUCCCACCACAUGAUGAUGCCUGAAGAGCCUUGGUUUUUUG [A43U G61U]: -2.41.
In the case of GACCAAUCUGCCCUCAGAGCUCGAGAACAUCUUCGGAUGCAGUGGAGGCAGGCUUCGGUGGCGCGAUAGCGCCAACGUCCUCAACCUCCAAUGCAUCCCACCACAUGAUGAUGCCUGAAGAGACUUGCUUUUUUG [A43U C123A G128C], the “polymerase ribozyme fitness (log ratio)” value is -2.79.
To GACCAAUCUGCCCUCAGAGCUCGAGAACAUCUUCGGAUGCAGUGGAGGCAGGCUUCGGUGGCGCGAUAGCGCCAACGUCCUCAACCACCAAUGCAUCCCACCACAUGAUAAUGCCUGAAGAGCCUUGGUUUUUUG [A43U U87A G110A] belongs -4.16; to GACCAAUCUGCCCUCAGAGCUCGAGAACAUCUUCGGAUGCAGUGGAGGCAGGCUUCGGUGGCGCGAUAGCGCCAACGUCCUCAACCGCCACUGCGUCCCACCACAUGAUGAUGCCUGGAGAGCCUUGGUUUUUUG [A43U U87G A91C A95G A118G], -1.27.
Regarding GACCAAUCUGCCCUCAGAGCUCGAGAACAUCUUCGGAUGCAGUGGAGGCAGGCUUCGGUCGCGCGAUAGCGCCAACGUCCUGAACCUCCAAUGCAUCCCACCACAUGAUGAUGCCUGAAGAGCCUUGGUUUUUUG [A43U G60C C82G], the “polymerase ribozyme fitness (log ratio)” value is -4.23.
On to GACCAAUCUGCCCUCAGAGCUCGAGAACAUCUUCGGAUGCAGUGGAGGCAGGCUUCGGUGGCGCGAUAGCGCCAACGUCCUCAACCUCCAAUGCAACCCACCACAUGAUGAUGCCUGAAGUGCCUUGGUUUUUUG [A43U U96A A121U], for which the “polymerase ribozyme fitness (log ratio)” value was found to be 0.867.
To GACCAAUCUGCCCUCAGAGCUCGAGAACAUCUUCGGAUGCAGAAGAGGCAGGCUUCGGUGGCGCGAUAGCGCCAACGUCCUCAACCUCCAAUGCAUCCCACCACAUGAUGAUGCCUGAUGAGCCUUGGUUUUUUG [G44A A119U] belongs -0.987; to GACCAAUCUGCCCUCAGAGCUCGAGAACAUCUUCGGAUGCAGUGGAGGCAGGCUUCGGUGGCGCGAUAGCGCUAACGUCCUCAACUUCCAAUGCAUCCCACCACAUGAUGAUGCCUGAAGAGCCGUGGUUUUUUG [A43U C73U C86U U125G], -2.65; to GACCAAUCUGCCCUCAGAGCUCGAGAACAUCUUCGGAUGCAGUGGAGGCAGGCUUCGGUGGCGCGAUAGCGCCAACGUCCUCAACCUCCAAUGCAUCCCACCACAUGAUGAUGCCUGAAGAGCCUUGGUUUAUUG [A43U U132A], -1.08.
GACCAAUCUGCCCUCAGAGCUCGAGAACAUCUUCGGAUGCAGUGGAGGCAGGCUUCGGUGGCGCGAUAGCGCCAACGUCCUCAACCUCCAAUGCAUCCCACAACAUGAUGAUGCCUGAAGAGCCUUGGUUUUUUG [A43U C102A]: the “polymerase ribozyme fitness (log ratio)” value is -4.93.
On to GACCAAUCUGCCCUCAGAGCUCGAGAACAUCUUCGGAUGCAGUGGAGGCAGGCUUCGGUGGCGCGAUAGCGCCAACGUCCUCAACCUCCAAUGCAUCCCACCAUAUGAUGAUGCCUGAAGAGCCUUGGUUUUUUG [A43U C104U], for which the “polymerase ribozyme fitness (log ratio)” value is -0.812.
